B1: glmS ribozyme (parent)
chain: AUAAAAGCGCCAGAACUACAGAAAUGUAGUUGACGAGGAGGAGGUUUAUCGAAUUUUCGGCGGAUGCCUCCAAA

Common to all, as to settings: with glucosamine-6-phosphate
In data set [1] the parent is B1. Briefly: kcat; higher = faster cleavage; RNA array. Summed up:
(§1)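 The measurements used barcoded ribozyme variants on sequenced MiSeq chips, transcribed in situ by E. coli RNA polymerase and tracked at 37 °C with a hybridised Cy3 probe. Glucosamine-6-phosphate, 40 μM to 10 mM in HEPES/KCl/Mg(OAc)2 buffer, was flowed in while tiles were imaged over ~14 h. Baseline-normalised signals, also normalised to non-cleaving reference variants, gave per-tile medians that were fit to one- or two-exponential decays for kobs. kcat and KM resulted from weighted Michaelis–Menten fits across concentrations.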

In data set [2] the parent is B1. Briefly: KM; higher = weaker cofactor use; RNA array. Put shortly: as §1
Variants of B1 are the subject of data set [3]. Briefly: self-cleavage kobs at 40 uM GlcN6P; higher = faster cleavage; RNA array. Summed up: as §1
Variants of B1 are the subject of data set [4]. Briefly: self-cleavage kobs at 640 uM GlcN6P; higher = faster cleavage; RNA array. Put shortly: as §1
Variants of B1 are the subject of data set [5]. Briefly: self-cleavage kobs at 2500 uM GlcN6P; higher = faster cleavage; RNA array. Put shortly:
as §1

The variants in data set [6] derive from B1. Briefly: self-cleavage kobs at 10000 uM GlcN6P; higher = faster cleavage; RNA array. Summed up: as §1
In data set [7] the parent is B1. Briefly: self-cleavage kobs at 160 uM GlcN6P; higher = faster cleavage; RNA array. Put shortly:
as §1

± gives the standard error. For some of these results: This sample holds only a part of the variants without activity.

The term kcat denotes the number of substrate molecules converted per active site and unit of time at saturation. In general, KM refers to the substrate concentration at which the rate is half of its maximum. Regarding U46A A64G, in the data set with glucosamine-6-phosphate [1], the kcat was 0.00469 ± 0.0011 s⁻¹. Besides, in the data set with glucosamine-6-phosphate [2], the Michaelis constant (KM) came to 2700 ± 990 µM. For the same variant, the “self-cleavage kobs at 40 uM GlcN6P” value with glucosamine-6-phosphate [3] was 0.000102 ± 2.3e-05 s⁻¹. The “self-cleavage kobs at 640 uM GlcN6P” value with glucosamine-6-phosphate [4] worked out at 0.000754 ± 0.00015 s⁻¹. The “self-cleavage kobs at 2500 uM GlcN6P” value in the data set with glucosamine-6-phosphate [5] is 0.00242 ± 0.00047 s⁻¹. In addition, the “self-cleavage kobs at 10000 uM GlcN6P” value with glucosamine-6-phosphate [6] is 0.00373 ± 0.00065 s⁻¹.

Take C16U A48U C58G C70G: in the data set with glucosamine-6-phosphate [1], the kcat was 4.36e-05 ± 1.5e-05 s⁻¹. The “self-cleavage kobs at 160 uM GlcN6P” value with glucosamine-6-phosphate [7] was determined as 4e-05 ± 1.8e-05 s⁻¹. For the same variant, the “self-cleavage kobs at 640 uM GlcN6P” value in the data set with glucosamine-6-phosphate [4] was determined as 7.73e-05 ± 3e-05 s⁻¹.

Regarding U46G, the kcat with glucosamine-6-phosphate [1] turned out to be 0.0111 ± 0.0013 s⁻¹. Further, the KM with glucosamine-6-phosphate [2] turned out to be 2110 ± 340 µM. For the same variant, in the data set with glucosamine-6-phosphate [3], the “self-cleavage kobs at 40 uM GlcN6P” value is 0.000228 ± 4.5e-06 s⁻¹. Moreover, the “self-cleavage kobs at 160 uM GlcN6P” value with glucosamine-6-phosphate [7] turned out to be 0.000671 ± 2.7e-05 s⁻¹. Further, the “self-cleavage kobs at 640 uM GlcN6P” value in the data set with glucosamine-6-phosphate [4] was found to be 0.00241 ± 6.1e-05 s⁻¹. In addition, the “self-cleavage kobs at 2500 uM GlcN6P” value with glucosamine-6-phosphate [5] came out at 0.00589 ± 0.00015 s⁻¹. Moreover, in the data set with glucosamine-6-phosphate [6], the “self-cleavage kobs at 10000 uM GlcN6P” value was found to be 0.00965 ± 0.00026 s⁻¹.

For U45A C70A, the catalytic constant (kcat) with glucosamine-6-phosphate [1] was determined as 0.000375 ± 0.00017 s⁻¹. Moreover, the “self-cleavage kobs at 160 uM GlcN6P” value in the data set with glucosamine-6-phosphate [7] was determined as 2.63e-05 ± 1.1e-05 s⁻¹. The “self-cleavage kobs at 640 uM GlcN6P” value with glucosamine-6-phosphate [4] is 0.000179 ± 3.7e-05 s⁻¹. Also, in the data set with glucosamine-6-phosphate [5], the “self-cleavage kobs at 2500 uM GlcN6P” value was 0.000225 ± 3.4e-05 s⁻¹.

For G41A U56G, the kcat with glucosamine-6-phosphate [1] was determined as 0.000193 ± 1.8e-05 s⁻¹. Besides, in the data set with glucosamine-6-phosphate [2], the KM was 1740 ± 310 µM. In the data set with glucosamine-6-phosphate [4], the “self-cleavage kobs at 640 uM GlcN6P” value was determined as 5.1e-05 ± 1.4e-05 s⁻¹. Besides, in the data set with glucosamine-6-phosphate [5], the “self-cleavage kobs at 2500 uM GlcN6P” value came to 0.000109 ± 3.5e-05 s⁻¹. Further, in the data set with glucosamine-6-phosphate [6], the “self-cleavage kobs at 10000 uM GlcN6P” value stood at 0.000169 ± 4.7e-05 s⁻¹.

As for U47G C68G, the kcat with glucosamine-6-phosphate [1] was 8.45e-05 ± 1.2e-05 s⁻¹. Also, the “self-cleavage kobs at 40 uM GlcN6P” value with glucosamine-6-phosphate [3] turned out to be 5.34e-05 ± 1e-05 s⁻¹. Moreover, in the data set with glucosamine-6-phosphate [7], the “self-cleavage kobs at 160 uM GlcN6P” value is 0.000166 ± 2.8e-05 s⁻¹. For the same variant, the “self-cleavage kobs at 640 uM GlcN6P” value in the data set with glucosamine-6-phosphate [4] is 8.26e-05 ± 1e-05 s⁻¹. In the data set with glucosamine-6-phosphate [5], the “self-cleavage kobs at 2500 uM GlcN6P” value was 0.000104 ± 1.2e-05 s⁻¹. For the same variant, the “self-cleavage kobs at 10000 uM GlcN6P” value with glucosamine-6-phosphate [6] turned out to be 7.41e-05 ± 6.8e-06 s⁻¹.

With A15C A39U, in the data set with glucosamine-6-phosphate [1], the kcat came out at 0.00476 ± 0.00092 s⁻¹. In addition, in the data set with glucosamine-6-phosphate [2], the KM came out at 2170 ± 610 µM. The “self-cleavage kobs at 40 uM GlcN6P” value with glucosamine-6-phosphate [3] amounted to 0.000106 ± 1.2e-05 s⁻¹. For the same variant, the “self-cleavage kobs at 160 uM GlcN6P” value in the data set with glucosamine-6-phosphate [7] amounted to 0.000264 ± 5e-05 s⁻¹. Besides, the “self-cleavage kobs at 640 uM GlcN6P” value with glucosamine-6-phosphate [4] came to 0.000744 ± 0.00036 s⁻¹. The “self-cleavage kobs at 2500 uM GlcN6P” value with glucosamine-6-phosphate [5] worked out at 0.00216 ± 0.00041 s⁻¹. The “self-cleavage kobs at 10000 uM GlcN6P” value with glucosamine-6-phosphate [6] amounted to 0.00417 ± 0.00045 s⁻¹.

As to A6G C67U, in the data set with glucosamine-6-phosphate [1], the kcat stood at 0.000111 ± 4.4e-05 s⁻¹. For the same variant, the “self-cleavage kobs at 10000 uM GlcN6P” value with glucosamine-6-phosphate [6] is 8.08e-05 ± 7.3e-06 s⁻¹.

Consider G7C C10G C67G, for which the kcat with glucosamine-6-phosphate [1] stood at 1.87e-05 ± 2.3e-06 s⁻¹.

For the variant U49G A64U, the kcat with glucosamine-6-phosphate [1] worked out at 1.18e-05 ± 9.4e-07 s⁻¹. In the data set with glucosamine-6-phosphate [3], the “self-cleavage kobs at 40 uM GlcN6P” value is less than 1e-05 s⁻¹. In addition, the “self-cleavage kobs at 160 uM GlcN6P” value in the data set with glucosamine-6-phosphate [7] was less than 1e-05 s⁻¹.

As to A6U C71A, in the data set with glucosamine-6-phosphate [1], the kcat was 5.43e-05 ± 1.1e-06 s⁻¹. In addition, the KM with glucosamine-6-phosphate [2] amounted to 1730 ± 140 µM. The “self-cleavage kobs at 2500 uM GlcN6P” value in the data set with glucosamine-6-phosphate [5] came to 3.22e-05 ± 1.3e-05 s⁻¹. Moreover, the “self-cleavage kobs at 10000 uM GlcN6P” value with glucosamine-6-phosphate [6] stood at 4.63e-05 ± 1.1e-05 s⁻¹.

As for G13A A52G, in the data set with glucosamine-6-phosphate [1], the kcat was determined as 6.74e-05 ± 2.2e-06 s⁻¹. Besides, in the data set with glucosamine-6-phosphate [2], the KM worked out at 1040 ± 140 µM. For the same variant, the “self-cleavage kobs at 2500 uM GlcN6P” value with glucosamine-6-phosphate [5] was 4.85e-05 ± 1.2e-05 s⁻¹. The “self-cleavage kobs at 10000 uM GlcN6P” value with glucosamine-6-phosphate [6] turned out to be 6.07e-05 ± 1.1e-05 s⁻¹.

Consider C11U A36C, for which the kcat with glucosamine-6-phosphate [1] was less than 1e-05 s⁻¹. Also, the “self-cleavage kobs at 40 uM GlcN6P” value with glucosamine-6-phosphate [3] was less than 1e-05 s⁻¹. Also, the “self-cleavage kobs at 160 uM GlcN6P” value in the data set with glucosamine-6-phosphate [7] is less than 1e-05 s⁻¹. For the same variant, the “self-cleavage kobs at 10000 uM GlcN6P” value with glucosamine-6-phosphate [6] was less than 1e-05 s⁻¹.

Turning to A39C C58A, the kcat with glucosamine-6-phosphate [1] worked out at 0.000217 ± 9.9e-05 s⁻¹. In addition, the “self-cleavage kobs at 40 uM GlcN6P” value with glucosamine-6-phosphate [3] is less than 1e-05 s⁻¹. Also, the “self-cleavage kobs at 10000 uM GlcN6P” value with glucosamine-6-phosphate [6] is 5.19e-05 ± 9.6e-06 s⁻¹.

G13A A15U: the kcat with glucosamine-6-phosphate [1] amounted to 0.00015 ± 1.5e-05 s⁻¹. The KM with glucosamine-6-phosphate [2] stood at 3530 ± 1100 µM. In addition, the “self-cleavage kobs at 2500 uM GlcN6P” value with glucosamine-6-phosphate [5] turned out to be 6.03e-05 ± 2.6e-05 s⁻¹. Also, the “self-cleavage kobs at 10000 uM GlcN6P” value in the data set with glucosamine-6-phosphate [6] turned out to be 0.000111 ± 1.5e-05 s⁻¹.

As to G37A G43U, in the data set with glucosamine-6-phosphate [1], the kcat came to 4.94e-05 ± 4.8e-06 s⁻¹. Also, the KM in the data set with glucosamine-6-phosphate [2] was 620 ± 300 µM. Further, the “self-cleavage kobs at 40 uM GlcN6P” value with glucosamine-6-phosphate [3] was less than 1e-05 s⁻¹. In addition, the “self-cleavage kobs at 160 uM GlcN6P” value with glucosamine-6-phosphate [7] is less than 1e-05 s⁻¹. Moreover, the “self-cleavage kobs at 2500 uM GlcN6P” value with glucosamine-6-phosphate [5] stood at 4.23e-05 ± 7.6e-06 s⁻¹. In addition, the “self-cleavage kobs at 10000 uM GlcN6P” value in the data set with glucosamine-6-phosphate [6] was 4.34e-05 ± 1.1e-05 s⁻¹.

Consider C61G C71U, for which the kcat with glucosamine-6-phosphate [1] was less than 1e-05 s⁻¹. The “self-cleavage kobs at 40 uM GlcN6P” value with glucosamine-6-phosphate [3] was less than 1e-05 s⁻¹. Besides, the “self-cleavage kobs at 10000 uM GlcN6P” value with glucosamine-6-phosphate [6] was less than 1e-05 s⁻¹.

Consider G37C C61A, for which the kcat with glucosamine-6-phosphate [1] was less than 1e-05 s⁻¹.

The values above are taken from the supplement of paper PMC7125110.
